Substitutions are numbered along the chain they refer to.

One may read the Kd as the equilibrium constant for the complex coming apart. By koff is commonly meant the rate constant with which the complex falls apart. Broadly, the kon is the rate constant with which the complex forms.

The chains are these.
B1: R1a-A5 (VHH)
VHH: QVQLVESGGGLVQPGGSLRLSCSASGSAVLFSTYPMSWYRQAPGKQRELVAAVTTDGSTSYADYAKGRFTISRDNAKNTVYLQMNSLKPEDTAVYYCNARDGFFNRYDYWGQGTQVTVSS
notes: also called R1a-A5 monovalent; source: E. coli WK6 periplasm, purified (Talon IMAC, Superdex 75 SEC)
B2: R2a-H9 (VHH)
VHH: QVQLVESGGGLVQPGGSLRLSCAASTNIASFYTMGWYRQTPGQQRDVVAVIGNGGNTNYADSVKGRFTISRDGAKNTAHLQMNSLKPEDTDVYYCKASGPGGVILWGQGTQVTVSS
notes: source: E. coli WK6 periplasm, purified (Talon IMAC, Superdex 75 SEC)
B3: R1a-F5 (VHH)
VHH: QLQLVESGGGLVQVGGSLRLSCAASGFPFDGYAIAWFRQAPGKEREGVSCRASDGNTYYAESLKGRLTMSTDNAKNTVYLQMNSLKPEDTAVYYCAAASWVASLWSPSEYDYWGQGTQVTVSS
notes: as for B2
B4: R2a-G9 (VHH)
VHH: QVQLVESGGGLVQPGGSLRLSCAASDNIFSFYTMGWYRQSPGKERELVAVIGNGGNTNYADSVKGRFTISRDNGKNKAHLQMNSLKPEDTAVYYCKASGPGGVEVWGQGTQVTVSS
notes: as for B2
B5: R1a-E6 (VHH)
VHH: QVQLVESGGGLVQPGGSLRLSCAASGFTLGAYAIAWFRQAPGKEREGVSCISPSDSFTEYGDSVKGRFTVSRDNAKNTVYLQMNSLQPEDTAVYYCAADPVCTAGWYRPSRFDLWGQGTQVTVSS
notes: as for B2
B6: R1a-G6 (VHH)
VHH: QVQLVESGGGLVQSGGSLRLSCAASGSMSRIITMGWYRQAPGMERELVAVIGNNDNTVYGDSVQGRFTVSRDNAKNTAYLQMNSLNAEDTAMYYCKISTLTPPHEYWGQGTQVTVSS
notes: as for B2
B7: R2a-F9 (VHH)
VHH: QVQLVESGGGLVQPGGSLRLSCSASGSISSIVTMGWYRQAPGKERELVAVIGNYGNTNYADSVKGRFTVSRDNAKNTVYLQMNSLNVEDTAMYVCKFSSTVAPHEYWGQGTQVTVSS
notes: as for B2
B8: R1a-G5 (VHH)
VHH: QLQLVESGGGLVQPGGSLRLSCAASGSISRIVTMGWYRQASGKERELVAVIGNYGNTNYADSVKGRFTVSRDNAKDTAYLQMNGLNVEDTAIYYCKTSTTTPPYEYWGQGTQVTVSS
notes: as for B2
B9: R1a-F4 (VHH)
VHH: B8 VHH with L2V, A40G, S41P, G84N, I92M, T97C, Y104H, Y106F
notes: as for B2

One experiment addresses hemagglutinin of A/Anhui/01/2005 (H5N1), in the influenza virus antigen standard (Influenza A virus A/Anhui/1/2005 (H5N1), UniProt Q1WDM0, strain). Nature of the experiment: ELISA. To be noted: one partner purified.
On to B1, for which the binding result is “binds”.

The next experiment deals with hemagglutinin of A/Indonesia/05/2005 (H5N1), in the influenza virus antigen standard (Influenza A virus A/Indonesia/05/2005 …, UniProt A5A5L7, strain). The experiment can be described thus: ELISA. The following applies: one partner purified. In general terms: In an ELISA, binding on a coated surface is turned into a signal by an enzyme label.
As for B1, the binding result is “binds”.

For another experiment, the target named is hemagglutinin of A/HongKong/213/2003 (H5N1), in the influenza virus antigen standard (Influenza A virus A/Hong Kong/213/2003 …, UniProt Q4H2E2, strain). The experiment can be described thus: ELISA. To be noted: one partner purified.
B1: the binding result is on record as “binds”.

The next experiment concerns the target hemagglutinin of A/Brisbane/10/2007 (H3N2), in the influenza virus antigen standard (Influenza A virus A/Brisbane/10/2007 …, UniProt A8W8K8, strain). Nature of the experiment: ELISA. To be noted: one partner purified.
As for B1, the binding result is “no binding”.

For the molecule B2, the binding result is “no binding”.

In the case of B3, the binding result is given as “no binding”.

Regarding B4, the binding result is recorded as “no binding”.

B5: the binding result is recorded as “no binding”.

For the molecule B6, the binding result is reported as “no binding”.

On to B7, for which the binding result is “no binding”.

Consider B8, for which the binding result is recorded as “no binding”.

Regarding B9, the binding result is “no binding”.

In a further experiment the target is recombinant H1-HA (D18-I530), A/California/06/2009 (H1N1)pdm09 (Influenza A virus A/California/06/2009 …, UniProt C3W5S1, strain). The experiment can be described thus: SPR. The following applies: both partners purified.
Consider B1, for which the Kd was determined as 1.87 nM.

In the case of B2, the equilibrium dissociation constant (Kd) turned out to be 2.77 nM, the koff was found to be 0.000384 s⁻¹ and the on-rate (kon) amounted to 139000 M⁻¹ s⁻¹.

For B3, the Kd was 10 nM, the koff is 0.000414 s⁻¹ and the kon came out at 40200 M⁻¹ s⁻¹.

As for B4, the Kd was 22.1 nM, the koff was determined as 0.00392 s⁻¹ and the kon came to 177000 M⁻¹ s⁻¹.

For B5, the equilibrium dissociation constant (Kd) came to 9.97 nM, the dissociation rate constant (koff) was determined as 0.000151 s⁻¹ and the on-rate (kon) came to 15100 M⁻¹ s⁻¹.

For the molecule B6, the equilibrium dissociation constant (Kd) is 4.83 nM, the dissociation rate constant (koff) was 0.000355 s⁻¹ and the kon amounted to 73800 M⁻¹ s⁻¹.

With B7, the dissociation constant (Kd) is 78.8 nM, the koff worked out at 0.065 s⁻¹ and the kon was found to be 825000 M⁻¹ s⁻¹.

On to B8, for which the dissociation constant Kd came to 5.85 nM, the off-rate constant (koff) turned out to be 0.00504 s⁻¹ and the kon came to 862000 M⁻¹ s⁻¹.

For the molecule B9, the Kd came to 6.46 nM, the dissociation rate constant (koff) amounted to 0.0022 s⁻¹ and the kon came to 340000 M⁻¹ s⁻¹.

In another experiment the target is recombinant H5-HA, A/Vietnam/1203/2004 (H5N1) (Influenza A virus A/Vietnam/1203/2004 …, UniProt Q5EP31, strain). Nature of the experiment: SPR. To be noted: both partners purified.
For B1, the Kd was 0.18 nM.

As to B2, the binding result is given as “no binding”.

Consider B3, for which the binding result is given as “no binding”.

With B4, the binding result is recorded as “no binding”.

Take B5: the binding result is “no binding”.

As for B6, the binding result is on record as “no binding”.

Take B7: the binding result is reported as “no binding”.

For B8, the binding result is “no binding”.

As to B9, the binding result is listed as “no binding”.

A further experiment deals with T1, recombinant H2-HA, A/Japan/305/57 (H2N2) (Influenza A virus A/Japan/305/1957 …, UniProt P03451, strain).
T1 construct: source: bought: E-Enzymes (Protein Sciences in the SPR methods)
The experiment can be described thus: SPR. To be noted: both partners purified.
As to B1, the binding result is listed as “no binding”.

B2: the binding result was “no binding”.

With B3, the binding result is recorded as “no binding”.

Regarding B4, the binding result is on record as “no binding”.

B5: the binding result is given as “no binding”.

Take B6: the binding result is listed as “no binding”.

Regarding B7, the binding result is listed as “no binding”.

In the case of B8, the binding result was “no binding”.

B9: the binding result is reported as “no binding”.

For the next experiment, the target named is recombinant H9-HA, A/HongKong/1073/99 (H9N2) (Influenza A virus A/Hong Kong/1073/99 …, UniProt Q9ICY5, strain). The experiment can be described thus: SPR. To be noted: both partners purified.
For B1, the binding result was “no binding”.

For the molecule B2, the binding result is recorded as “no binding”.

As to B3, the binding result is on record as “no binding”.

Take B4: the binding result is on record as “no binding”.

For the molecule B5, the binding result is “no binding”.

Regarding B6, the binding result was “no binding”.

As for B7, the binding result is “no binding”.

Consider B8, for which the binding result was “no binding”.

With B9, the binding result was “no binding”.

The target in a further experiment is recombinant HA1 domain (D18-R344), A/California/06/2009 (H1N1)pdm09 (Influenza A virus A/California/06/2009 …, UniProt C3W5S1, strain). Nature of the experiment: SPR. To be noted: both partners purified.
Regarding B2, the Kd turned out to be 468 nM.

With B3, the dissociation constant Kd is 6.06 nM.

For B4, the Kd is 68.7 nM.

Regarding B5, the Kd was found to be 36 nM.

Turning to B6, the Kd was determined as 4.62 nM.

As to B7, the Kd was 78.8 nM.

In the case of B8, the Kd amounted to 15.6 nM.

For B9, the Kd came out at 4.74 nM.

Another experiment deals with hemagglutinin of A/California/07/2009 (H1N1)pdm09, in the influenza virus antigen standard (Influenza A virus A/California/07/2009 …, UniProt C3W5X2, strain). Nature of the experiment: ELISA. To be noted: one partner purified.
B1: the binding result is reported as “binds”.

With B2, the binding result was “binds”.

Turning to B3, the binding result was “binds”.

Take B4: the binding result is “binds”.

Regarding B5, the binding result is “binds”.

For the molecule B6, the binding result is recorded as “binds”.

For the molecule B7, the binding result is “binds”.

Regarding B8, the binding result was “binds”.

Take B9: the binding result is on record as “binds”.

For a further experiment, the target named is phage displayed HA gene fragment P66-I282 (Influenza A virus A/California/07/2009 …, UniProt C3W5X2). Nature of the experiment: ELISA. To be noted: both partners purified.
As for B1, the binding result is “no binding”.

With B2, the binding result is given as “binds”.

B3: the binding result is listed as “binds”.

Consider B4, for which the binding result is “binds”.

In the case of B5, the binding result is “binds”.

B6: the binding result is “binds”.

As for B7, the binding result is “binds”.

In the case of B8, the binding result was “binds”.

As for B9, the binding result was “binds”.

The next experiment concerns the target phage displayed HA gene fragment L193-K225 (Influenza A virus A/California/07/2009 …, UniProt C3W5X2). The experiment can be described thus: ELISA. The following applies: both partners purified.
As to B1, the binding result is given as “no binding”.

B2: the binding result is on record as “no binding”.

Regarding B3, the binding result was “no binding”.

Consider B4, for which the binding result is “no binding”.

B5: the binding result is recorded as “no binding”.

Turning to B6, the binding result is recorded as “no binding”.

Turning to B7, the binding result is “no binding”.

B8: the binding result is listed as “no binding”.

Regarding B9, the binding result is listed as “no binding”.

For the next experiment, the target named is phage displayed HA gene fragment D363-G478 (Influenza A virus A/California/07/2009 …, UniProt C3W5X2). Nature of the experiment: ELISA. To be noted: both partners purified.
Take B1: the binding result is on record as “no binding”.

As for B3, the binding result is given as “no binding”.

On to B5, for which the binding result is “no binding”.

As for B6, the binding result is reported as “no binding”.

B7: the binding result is “no binding”.

With B8, the binding result was “no binding”.

With B9, the binding result was “no binding”.

For the next experiment, the target named is T2, recombinant H3-HA, A/Brisbane/10/2007 (H3N2) (Influenza A virus A/Brisbane/10/2007 …, UniProt A8W8K8, strain).
T2 construct: source: bought: Protein Sciences
Nature of the experiment: SPR; data not shown: sdAbs on immobilised recombinant H3-HA and H7-HA. The following applies: both partners purified.
As to B1, the binding result is on record as “no binding”.

Regarding B2, the binding result was “no binding”.

In the case of B3, the binding result is listed as “no binding”.

On to B4, for which the binding result was “no binding”.

As to B5, the binding result is given as “no binding”.

Regarding B6, the binding result is reported as “no binding”.

Turning to B7, the binding result is “no binding”.

Consider B8, for which the binding result is reported as “no binding”.

For B9, the binding result is given as “no binding”.

In a further experiment the target is T3, recombinant H7-HA, A/Netherlands/219/2003 (H7N7) (Influenza A virus …, UniProt Q6VMK1).
T3 construct: source: bought: Protein Sciences
The experiment is described as above. The following applies: both partners purified.
Take B1: the binding result was “no binding”.

Turning to B2, the binding result was “no binding”.

For the molecule B3, the binding result is recorded as “no binding”.

On to B4, for which the binding result is reported as “no binding”.

For the molecule B5, the binding result is on record as “no binding”.

Turning to B6, the binding result is recorded as “no binding”.

Take B7: the binding result is “no binding”.

Turning to B8, the binding result was “no binding”.

With B9, the binding result is “no binding”.

For the origin of these results see publication PMC4118869 (PLoS ONE, 2014).
